Among the data in US20240349752A1 (CLARA FOODS, published 2024) are Trypsin inhibition activity values, retold here.

The target in this test is bovine trypsin (bovine, UniProt P00760 24-246). The test is described as follows: cell-based or functional assay.
Sequence of bovine trypsin (P00760 24-246): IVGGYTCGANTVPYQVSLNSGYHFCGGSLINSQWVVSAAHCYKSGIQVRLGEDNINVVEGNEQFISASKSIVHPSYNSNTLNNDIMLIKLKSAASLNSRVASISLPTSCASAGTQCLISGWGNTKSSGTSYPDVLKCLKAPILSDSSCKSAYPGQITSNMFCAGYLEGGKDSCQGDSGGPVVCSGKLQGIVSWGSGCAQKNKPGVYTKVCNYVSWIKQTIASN

B1: Native chicken Ovomucoid (other)
chain: AEVDCSRFPNATDKEGKDVLVCNKDLRPICGTDGVTYTNDCLLCAYSIEFGTNISKEHDGECKETVPMNCSSYANTTSEDGKVMVLCNRAFNPVCGTDGVTYDNECLLCAHKVEQGASVDKRHDGGCRKELAAVSVDCSEYPKPDCTAEDRPLCGSDNKTYGNKCNFCNAVVESNGTLTLSHFGKC
modifications: complex branched N-linked glycosylation (includes mannose)
Take B1: the Trypsin inhibition activity was found to be 13700 TIU/g.
